Reference: the supplement of paper PMC10567573

B1: HDAC6 (parent)
chain: QEGLLDRCVSFQARFAEKEELMLV

Variants of: B1
Test: protein stability index of a GFP-peptide fusion (GPS, HEK-293T) (PSI 1-6); higher = more stable
Conditions: c terminus: a fixed tail appended
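Further: lentivirally expressed fusions sorted by FACS into six bins by GFP to DsRed ratio, PSI derived from sequencing read proportions per bin multiplied by bin number.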

Row | Variant | protein stability index
1 | QEGLLDRCVSFQARFAEKEELMLS | 3.59
2 | QEGLLDRCVSFQARFAEKEELMLH | 2.82
3 | QEGLLDRCVSFQARFAEKEELMLG | 3.62
4 | QEGLLDRCVSFQARFAEKEELMLA | 3.83
5 | QEGLLDRCVSFQARFAEKEELMLP | 4.13
6 | QEGLLDRCVSFQARFAEKEELMLF | 1.85
7 | QEGLLDRCVSFQARFAEKEELMLE | 4.18
8 | QEGLLDRCVSFQARFAEKEELMLT | 3.82
9 | QEGLLDRCVSFQARFAEKEELMLK | 3.74
10 | QEGLLDRCVSFQARFAEKEELMLW | 2.21
11 | QEGLLDRCVSFQARFAEKEELMLC | 2.63
12 | QEGLLDRCVSFQARFAEKEELMLN | 3.42
13 | QEGLLDRCVSFQARFAEKEELMLR | 3.31
14 | QEGLLDRCVSFQARFAEKEELMLY | 2.27
15 | QEGLLDRCVSFQARFAEKEELMLI | 2.17
16 | QEGLLDRCVSFQARFAEKEELMLQ | 3.76
17 | QEGLLDRCVSFQARFAEKEELMLL | 2.21
18 | QEGLLDRCVSFQARFAEKEELMLM | 2.05
19 | QEGLLDRCVSFQARFAEKEELMLD | 4.32
20 | QEGLLDRCVSFQARFAEKEGLMLV | 1.74
21 | QEGLLDRCVSFQARFAEKESLMLV | 2.24
22 | QEGLLDRCVSFQARFAEKEHLMLV | 2.52
23 | QEGLLDRCVSFQARFAEKEILMLV | 1.18
24 | QEGLLDRCVSFQARFAEKENLMLV | 1.84

Row | Variant | protein stability index
25 | QEGLLDRCVSFQARFAEKEDLMLV | 2.32
26 | QEGLLDRCVSFQARFAEKETLMLV | 2.14
27 | QEGLLDRCVSFQARFAEKERLMLV | 1.69
28 | QEGLLDRCVSFQARFAEKEFLMLV | 2.98
29 | QEGLLDRCVSFQARFAEKEKLMLV | 1.96
30 | QEGLLDRCVSFQARFAEKEQLMLV | 1.86
31 | QEGLLDRCVSFQARFAEKELLMLV | 1.62
32 | QEGLLDRCVSFQARFAEKEPLMLV | 2.01
33 | QEGLLDRCVSFQARFAEKEMLMLV | 1.37
34 | QEGLLDRCVSFQARFAEKEALMLV | 2.37
35 | QEGLLDRCVSFQARFAEKEWLMLV | 2.02
36 | QEGLLDRCVSFQARFAEKEYLMLV | 1.67
37 | QEGLLDRCVSFQARFAEKEVLMLV | 1.72
38 | QEGLLDRCVSFQARFAEHEELMLV | 1.44
39 | QEGLLDRCVSFQARFAEIEELMLV | 2.6
40 | QEGLLDRCVSFQARFAEQEELMLV | 2.17
41 | QEGLLDRCVSFQARFAENEELMLV | 1.77
42 | QEGLLDRCVSFQARFAEMEELMLV | 2.04
43 | QEGLLDRCVSFQARFAESEELMLV | 1.75
44 | QEGLLDRCVSFQARFAEPEELMLV | 2.07
45 | QEGLLDRCVSFQARFAEDEELMLV | 1.79
46 | QEGLLDRCVSFQARFAEAEELMLV | 1.98
47 | QEGLLDRCVSFQARFAEGEELMLV | 1.63
48 | QEGLLDRCVSFQARFAEFEELMLV | 2.51

Row | Variant | protein stability index
49 | QEGLLDRCVSFQARFAECEELMLV | 2.17
50 | QEGLLDRCVSFQARFAETEELMLV | 2.66
51 | QEGLLDRCVSFQARFAEVEELMLV | 1.96
52 | QEGLLDRCVSFQARFAEREELMLV | 1.45
53 | QEGLLDRCVSFQARFAEWEELMLV | 2.1
54 | QEGLLDRCVSFQARFAEEEELMLV | 2.38
55 | QEGLLDRCVSFQARFAEYEELMLV | 1.78
56 | QEGLLDRCVSFQARFAELEELMLV | 1.49
57 | QEGLLDRCVSFQARFANKEELMLV | 1.68
58 | QEGLLDRCVSFQARFAKKEELMLV | 1.72
59 | QEGLLDRCVSFQARFAWKEELMLV | 1.02
60 | QEGLLDRCVSFQARFAIKEELMLV | 1.58
61 | QEGLLDRCVSFQARFASKEELMLV | 1.7
62 | QEGLLDRCVSFQARFAFKEELMLV | 1.53
63 | QEGLLDRCVSFQARFAHKEELMLV | 1.49
64 | QEGLLDRCVSFQARFAAKEELMLV | 2.05
65 | QEGLLDRCVSFQARFAGKEELMLV | 1.95
66 | QEGLLDRCVSFQARFACKEELMLV | 1.73
67 | QEGLLDRCVSFQARFAPKEELMLV | 1.73
68 | QEGLLDRCVSFQARFAQKEELMLV | 2.05
69 | QEGLLDRCVSFQARFALKEELMLV | 1.85
70 | QEGLLDRCVSFQARFATKEELMLV | 1.46
71 | QEGLLDRCVSFQARFAMKEELMLV | 1.4
72 | QEGLLDRCVSFQARFAVKEELMLV | 1.21

Row | Variant | protein stability index
73 | QEGLLDRCVSFQARFARKEELMLV | 2.03
74 | QEGLLDRCVSFQARFADKEELMLV | 2.14
75 | QEGLLDRCVSFQARFAYKEELMLV | 1.67
76 | QEGLLDRCVSFQARFVEKEELMLV | 1.5
77 | QEGLLDRCVSFQARFYEKEELMLV | 1.65
78 | QEGLLDRCVSFQARFWEKEELMLV | 1.03
79 | QEGLLDRCVSFQARFAEKEELSLV | 3.43
80 | QEGLLDRCVSFQARFAEKEELILV | 1.92
81 | QEGLLDRCVSFQARFAEKEELRLV | 3.14
82 | QEGLLDRCVSFQARFAEKEELLLV | 2.03
83 | QEGLLDRCVSFQARFAEKEELNLV | 3.84
84 | QEGLLDRCVSFQARFAEKEELCLV | 3.01
85 | QEGLLDRCVSFQARFAEKEELKLV | 3.31
86 | QEGLLDRCVSFQARFAEKEELELV | 4.27
87 | QEGLLDRCVSFQARFAEKEELFLV | 1.88
88 | QEGLLDRCVSFQARFAEKEELYLV | 2.03
89 | QEGLLDRCVSFQARFAEKEELALV | 2.93
90 | QEGLLDRCVSFQARFAEKEELTLV | 3.2
91 | QEGLLDRCVSFQARFAEKEELVLV | 1.92
92 | QEGLLDRCVSFQARFAEKEELPLV | 3.99
93 | QEGLLDRCVSFQARFAEKEELWLV | 1.95
94 | QEGLLDRCVSFQARFAEKEELGLV | 3.27
